Laboratory results: patent publication US20180105596A1 (ELSALYS BIOTECH, published 2018)
Residue numbers refer to the chain shown, from its start.

T1: recombinant His-Strep tagged human Tyro3 extracellular domain (human, UniProt Q06418 41-429)
T1 construct: also called hTyro3 ECD; full Tyro3 ECD
T1 sequence: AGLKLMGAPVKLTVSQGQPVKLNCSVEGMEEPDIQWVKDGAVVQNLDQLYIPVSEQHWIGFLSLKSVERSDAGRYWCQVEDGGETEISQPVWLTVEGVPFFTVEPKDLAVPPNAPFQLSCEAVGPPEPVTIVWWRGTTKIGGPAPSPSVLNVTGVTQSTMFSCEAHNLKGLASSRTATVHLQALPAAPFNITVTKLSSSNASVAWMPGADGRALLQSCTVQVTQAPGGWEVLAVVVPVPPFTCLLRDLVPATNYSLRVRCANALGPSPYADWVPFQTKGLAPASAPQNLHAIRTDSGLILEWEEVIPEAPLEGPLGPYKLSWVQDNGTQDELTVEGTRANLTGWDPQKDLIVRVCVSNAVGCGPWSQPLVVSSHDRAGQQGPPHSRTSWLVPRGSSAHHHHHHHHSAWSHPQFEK

B1: anti-Tyro3 scFv 2717 (scFv, V domains shown)
VH: EVQLVQSGADVKKPGASLTISCQASGYTFTDYWISWVRQKPGKGLEWMGEIFLPPSTTVYGPSFQGHVTISADRSTATAYLQWRSLEASDTAMYYCVRQTRLTSGGTIPEYYQHWGPGTLVTVSS
VL: SYELTQPPSVSVSPGQTARITCSGDALPKKYAYWYQQKSGQAPVLVIYEDNKRGSGIPERFSGSSSGTMATLTISGAQVEDEADYYCYSKSPEGNYMVFGGGTKLTVL
notes: Tested as a single-chain Fv made in E. coli
B2: anti-Tyro3 scFv 2709 (scFv, V domains shown)
VH: B1 VH with E50A, F52S, L53R, P54N, P55G, V59Y, Q99S, T100G, R101G, T122P
VL: B1 VL with N51K, G54V, K90L, S91A, P92V, E93D, M97G
notes: as for B1

Legend:
[1] = molecular target: T1, recombinant His-Strep tagged human …; test: sandwich ELISA, Strep-tagged hTyro3 ECD captured on StrepMAB plate, scFv 3-fold from 10 µg/mL, anti-FLAG-HRP
Procedure: A double sandwich ELISA was developed. This assay consisted in measuring the binding of the anti-Tyro3 antibodies to be tested on immobilized strep-tagged entire human Tyro3 ECD captured directly on ELISA plate pre-coated with an anti-strep mAb (StrepMAB-Immo coated microplates from IBA biotech). Briefly, the 96 wells of StrepMAB-Immo coated microplate were washed three times with 300 μL of the PBS Tween 0.2% (referred as ELISA washing solution). The capture of an excess of purified strep tagged hTyro3 ECD protein was achieved by a one hour incubation at room temperature. In these experiments, 3 μg of purified protein diluted in PBS, BSA 1% (referred as ELISA diluent solution) were immobilized per well. The wells were washed three times with 300 μL of the washing solution. The non-specific binding sites on the well surface were blocked during 60 min at room temperature with 200 μL/well of blocking solution (PBS, BSA 3%). The wells were washed five times with 300 μL of the washing solution. Then, 100 μl (in duplicates) of the different concentrations of anti-Tyro3 antibodies to be tested diluted in ELISA diluent solution, were added per well and allowed to incubate during 1 hour at room temperature. An Irrelevant control IgG2656 was also added in this experiment. For anti-Tyro3 antibodies in the ScFv format, experiments were performed with 6 concentrations in duplicates (FIG. 3A). […]

[2] = molecular target: T1, recombinant His-Strep tagged human …; test: sandwich ELISA, Strep-tagged fragment captured on StrepMAB plate, scFv 10 µg/mL (Table 17), anti-FLAG-HRP

Binder | binding result [1] | binding result [2]
B1 | binds | 
B2 |  | binds
